Measured values reported in the supplement of paper PMC10126150.
± gives the standard deviation of the averaged measurements.

system: ATP; assay: switch fluorescence ratio, 500 uM ATP over buffer (Cy3 cluster intensity, sum of 5 cycles each) (fold (ratio)); higher = stronger signal-on switching upon ATP binding; sequences stand for … in TCGTCGGCAGCGTCAGATGTGTATAAGAGACAGTTTTTTTTTTTTTTTTTTTTTTTTT…TC; details: aptamer strand: ATP DNA aptamer (quencher-CACCTGGGGGAGTATTGCGGAGGAAGG + anchor), 100 nM annealed; ATP concentration: 500 uM
In short: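 Cy3-labelled switching-strand clusters on a modified Illumina MiSeq flow-cell were annealed to 100 nM quencher-labelled ATP aptamer, imaged in selection buffer, then imaged after 15 min with 500 uM ATP at 22 °C. Five buffer/ATP cycles ran, with NaOH stripping and re-annealing between them. The fluorescence ratio is summed target-cycle over summed buffer-cycle Cy3 intensity per cluster, averaged per switch-domain sequence. Clusters outside 100-1000 RFU were excluded.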
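Note: ATP exposure 15 min at 22 °C before imaging.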

TTTTTGGGTC and TTTTTGGTAA are within error of each other in switch fluorescence ratio: 1.03 ± 0.12 for the first, 1.01 ± 0.021 for the second.

TTTTTGGTAC and TTTTTGTAAC are within error of each other in switch fluorescence ratio: 1.05 ± 0.076 for the first, 1.01 ± 0.022 for the second.

TTTTTGTAGT and TTTTTGTCCC are within error of each other in switch fluorescence ratio: 1.01 ± 0.032 for the first, 1.04 ± 0.054 for the second.

TTTTTGTCCG and TTTTTGTCTG are within error of each other in switch fluorescence ratio: 1.02 ± 0.042 for the first, 0.9814 ± 0.0091 for the second.

TTTTTGTGCA and TTTTTGTTCG are within error of each other in switch fluorescence ratio: 1.01 ± 0.011 for the first, 0.998 ± 0.015 for the second.

TTTTTTAATA and TTTTTTACAG are within error of each other in switch fluorescence ratio: 1 ± 0.036 for the first, 1.02 ± 0.011 for the second.

TTTTTTACCA and TTTTTTACCG are within error of each other in switch fluorescence ratio: 1.01 ± 0.036 for the first, 1.02 ± 0.04 for the second.

TTTTTTACGT and TTTTTTACTT are within error of each other in switch fluorescence ratio: 1.043 ± 0.0092 for the first, 1.03 ± 0.054 for the second.

TTTTTTAGAG and TTTTTTAGTG are within error of each other in switch fluorescence ratio: 1.004 ± 0.0068 for the first, 0.981 ± 0.026 for the second.

TTTTTTATGG and TTTTTTCCAC are the same in switch fluorescence ratio: 1.01 ± 0.031 for the first, 1.01 ± 0.028 for the second.

TTTTTTCTCT and TTTTTTGCTT are within error of each other in switch fluorescence ratio: 0.994 ± 0.02 for the first, 0.989 ± 0.038 for the second.

TTTTTTGT and TTTTTTGTCC are within error of each other in switch fluorescence ratio: 0.982 ± 0.021 for the first, 1.01 ± 0.018 for the second.

TTTTTTTAGT and TTTTTTTATC are within error of each other in switch fluorescence ratio: 0.996 ± 0.022 for the first, 1.01 ± 0.027 for the second.

TTTTTTTCAC and TTTTTTTCCC are within error of each other in switch fluorescence ratio: 0.953 ± 0.058 for the first, 1.01 ± 0.018 for the second.

TTTTTTTCGC and TTTTTTTCTA are within error of each other in switch fluorescence ratio: 1.01 ± 0.032 for the first, 0.99 ± 0.014 for the second.

TTTTTTTG and TTTTTTTGCC are within error of each other in switch fluorescence ratio: 0.997 ± 0.026 for the first, 1 ± 0.058 for the second.

TTTTTTTTAG and TTTTTTTTGG are within error of each other in switch fluorescence ratio: 1.07 ± 0.27 for the first, 0.998 ± 0.032 for the second.

Work on TTTTTTTTTG yielded a switch fluorescence ratio of 0.987 ± 0.025.
